The record followed here is article PMC3618350 (G3: Genes|Genomes|Genetics, 2013).

Experiment [1] has as its target T1, Rad30 (S. cerevisiae, UniProt Q04049 1-632).
T1 sequence (looked up): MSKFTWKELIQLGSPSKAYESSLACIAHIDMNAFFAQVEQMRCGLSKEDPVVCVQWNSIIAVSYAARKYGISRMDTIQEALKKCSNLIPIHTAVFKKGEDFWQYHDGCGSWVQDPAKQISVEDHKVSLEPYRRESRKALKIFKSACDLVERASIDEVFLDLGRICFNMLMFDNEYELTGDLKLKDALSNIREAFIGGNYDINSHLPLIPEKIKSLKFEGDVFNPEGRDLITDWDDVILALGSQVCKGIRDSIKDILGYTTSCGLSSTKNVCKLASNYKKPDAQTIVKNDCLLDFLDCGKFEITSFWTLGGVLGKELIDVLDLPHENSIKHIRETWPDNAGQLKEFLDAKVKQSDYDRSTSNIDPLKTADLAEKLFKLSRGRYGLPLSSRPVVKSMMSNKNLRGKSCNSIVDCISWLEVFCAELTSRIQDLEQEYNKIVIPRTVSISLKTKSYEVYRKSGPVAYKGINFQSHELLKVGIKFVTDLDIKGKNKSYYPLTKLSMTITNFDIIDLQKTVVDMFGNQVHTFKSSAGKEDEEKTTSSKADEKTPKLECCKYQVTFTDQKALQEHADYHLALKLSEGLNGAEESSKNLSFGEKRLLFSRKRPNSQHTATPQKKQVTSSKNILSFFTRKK
Kind of experiment: two-hybrid.

The target in experiment [2] is T1, Rad30. Nature of the experiment: two-hybrid. This is another data set of the same source.

Read-outs that look alike come from different tables or passages of the source.

B1: Rev1 (enzyme, S. cerevisiae, UniProt P12689 1-985, looked up)
chain: MGEHGGLVDLLDSDLEYSINRETPDKNNCLSQQSVNDSHLTAKTGGLNARSFLSTLSDDSLIEYVNQLSQTNKNNSNPTAGTLRFTTKNISCDELHADLGGGEDSPIARSVIEIQESDSNGDDVKKNTVYTREAYFHEKAHGQTLQDQILKDQYKDQISSQSSKIFKNCVIYINGYTKPGRLQLHEMIVLHGGKFLHYLSSKKTVTHIVASNLPLKKRIEFANYKVVSPDWIVDSVKEARLLPWQNYSLTSKLDEQQKKLDNCKTVNSIPLPSETSLHKGSKCVGSALLPVEQQSPVNLNNLEAKRIVACDDPDFLTSYFAHSRLHHLSAWKANLKDKFLNENIHKYTKITDKDTYIIFHIDFDCFFATVAYLCRSSSFSACDFKRDPIVVCHGTKNSDIASCNYVARSYGIKNGMWVSQAEKMLPNGIKLISLPYTFEQFQLKSEAFYSTLKRLNIFNLILPISIDEAVCVRIIPDNIHNTNTLNARLCEEIRQEIFQGTNGCTVSIGCSDSLVLARLALKMAKPNGYNITFKSNLSEEFWSSFKLDDLPGVGHSTLSRLESTFDSPHSLNDLRKRYTLDALKASVGSKLGMKIHLALQGQDDEESLKILYDPKEVLQRKSLSIDINWGIRFKNITQVDLFIERGCQYLLEKLNEINKTTSQITLKLMRRCKDAPIEPPKYMGMGRCDSFSRSSRLGIPTNEFGIIATEMKSLYRTLGCPPMELRGLALQFNKLVDVGPDNNQLKLRLPFKTIVTNRAFEALPEDVKNDINNEFEKRNYKRKESGLTSNSLSSKKKGFAISRLEVNDLPSTMEEQFMNELPTQIRAEVRHDLRIQKKIQQTKLGNLQEKIKRREESLQNEKNHFMGQNSIFQPIKFQNLTRFKKICQLVKQWVAETLGDGGPHEKDVKLFVKYLIKLCDSNRVHLVLHLSNLISRELNLCAFLNQDHSGFQTWERILLNDIIPLLNRNKHTYQTVRKLDMDFEV
For B1, the entries for the “fold change in reporter activity over the highest negative control” value in the experiment with Rad30 [1] and with Rad30 [2] were 3.07 fold and 1.47 fold, respectively.
